This data set in a line: yeast display, Sf9 membrane polyspecificity reagent, FACS + sequencing; frameworks hold sequencing errors. The gist of the method:
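Genes from sorted yeast were amplified by colony PCR, read by MiSeq 2 × 250 sequencing and filtered on CDR length. These cells carried a synthetic nanobody library in Saccharomyces cerevisiae BJ5465 and were sorted by FACS into low and high (top ~1%) gates on anti-HA and streptavidin fluorescence. Polyreactivity is labelled according to the gate of origin.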
Take “QVQLVESGGGLVQAGGSLRLSCAASGSTFDYYYMGWYRQAPGKERELVAAISYSGTSTYYADSVKGRFTISRDNAKNTVYLQMNSQKPEDTAVYYCAKVFPDWYWYDYCGQGTQVTVSS”: the “polyreactivity (PSR sort gate)” value is reported as “low polyreactivity”.

For the sequence “QVQLVESGGGLVQAGGSLRLSCAASGSTFEANAMGWYRQAPGKERELVAVITWTGGSTYYADSVKGRFTISRDNAKNTVYLQMNSLKPEDTAVYYCAADGVVPCRFFWPAHEYDYWGQGTQVTVSS”, the “polyreactivity (PSR sort gate)” value was “low polyreactivity”.

With “QVQLVESGGGLVQAGGSLRLSCAASGSTFEAYAMGWYRQAPGKERELVAAINFTGGRTYYADSVKGRFTISRDNAKNTVYLQINSLKPEDTAVYYCAARKWGVPYIDNDYWGQGTQVTVSS”, the “polyreactivity (PSR sort gate)” value is listed as “low polyreactivity”.

As to “QVQLVESGGGLVQAGGSLRLSCAASGSTFEDYTLGGYRQATGKERELVAAINWDGSRTYYADSVKGRFTISRDNAKNTVYLQMNSLKPEDTAVYDCAAHSAYHRRRMYYWGQGTQVTVSS”, the “polyreactivity (PSR sort gate)” value is recorded as “high polyreactivity”.

“QVQLVESGGGLVQAGGSLRLSCAASGSTFEGYAMGWYRQAPGKERELVAVISSGSITKYADSVKGRFTISRDNAKNTVYLQMNSLKPEDTAVYYCARKGGIIFASYLLGGYWGQGTQVTVSS”: the “polyreactivity (PSR sort gate)” value is on record as “low polyreactivity”.

In the case of “QVQLVESGGGLVQAGGSLRLSCAASGSTFEHYAMGWYRQAPGKERELVAAITRRGGSTYYADSVKGRFTISSDNAKNTVYLQMNSLKPEDTAVYYCYTVLRYSYYLPGYDYWGQGTQVTVSS”, the “polyreactivity (PSR sort gate)” value is “high polyreactivity”.

For “QVQLVESGGGLVQAGGSLRLSCAASGSTFENYVRGWYRQAPGKERELFAAISRGGGSTHYADSVKGRFTISRDNAKITVYLQKKSLKPEDTAVYYCAARYQTYVGSSSISTGIYYYWGQGTQVTVSS”, the “polyreactivity (PSR sort gate)” value is listed as “low polyreactivity”.

For “QVQLVESGGGLVQAGGSLRLSCAASGSTFEPYAMGWYRQAPGKEREFVAAISGSGGSTYYADSVKGRFTISRDNAKNTVYLQMNSLKPEDTAVSYCAKDSFPWVDDDYWGQATQVTVSS”, the “polyreactivity (PSR sort gate)” value is “low polyreactivity”.

Turning to “QVQLVESGGGLVQAGGSLRLSCAASGSTFESYAMGWYRQAPGKERELVAAISQNGGSTYYADSVKGRFTISRDNAKNTVYLQMNSLKPEDTAVYYCNADVYPYYRKPWMDYWGQGPQVTVSS”, the “polyreactivity (PSR sort gate)” value is “low polyreactivity”.

With “QVQLVESGGGLVQAGGSLRLSCAASGSTFESYDMGWYRPAPGKERELVAAIDWSGGITYYADSVKGRFTISRDNAKNTVYLQMNSLKPEDTAVYYCNADWFVRYPKRVYWSEYDYWGHGTQVTVSS”, the “polyreactivity (PSR sort gate)” value is listed as “low polyreactivity”.

For “QVQLVESGGGLVQAGGSLRLSCAASGSTFEVYVMGWYRQAPGKERELVAGISKRGGRTYYADSVKGRFTISRDTEKNTVYLQLNSLKPEDTAVYYCAADAPGHEYYYWGQGTQVTVSS”, the “polyreactivity (PSR sort gate)” value was “high polyreactivity”.

“QVQLVESGGGLVQAGGSLRLSCAASGSTFEWYAMGGYRQAPGKEREFVASISWSGGRTYYADSVKGRFTISRDNAKNTVYLQMNSLKPEDTAVYYCAAVAVPLQVPSGRAASKRRYGYWGQGTQVTVSS”: the “polyreactivity (PSR sort gate)” value is recorded as “high polyreactivity”.

Take “QVQLVESGGGLVQAGGSLRLSCAASGSTFEYNAKGWYRQAPGKERELVASSTNYADSVKGRFTISRDNAKNTVYFQMNSLKPEDTAVYYCAARSLRYPYDYWGQGTQVTVSS”: the “polyreactivity (PSR sort gate)” value is recorded as “low polyreactivity”.

For the sequence “QVQLVESGGGLVQAGGSLRLSCAASGSTFEYNAMGWYRQAPGKERELVASSTNYADSVKGRFTISRDNAKNTVYLQMNSLKPEDTAVYYCAREQGVNRNHDYWGQGTQGTVSS”, the “polyreactivity (PSR sort gate)” value was “low polyreactivity”.

In the case of “QVQLVESGGGLVQAGGSLRLSCAASGSTFEYNAMGWYRQAPGKERELVASSTNYAEAVKGRFTISRDNAKNTVYLQMNCLKPVDTAVYYCAREQGVNRNHDYWGQGTQVTVSS”, the “polyreactivity (PSR sort gate)” value is reported as “low polyreactivity”.

Turning to “QVQLVESGGGLVQAGGSLRLSCAASGSTFEYNAMGWYRQAPGKESELVASSTNYADSVKGRFTISRDNAKNTVYFQMNSLKPEDTAVYYCSREQGVNRNHDYWGQGTQVTVSS”, the “polyreactivity (PSR sort gate)” value is given as “low polyreactivity”.

As for “QVQLVESGGGLVQAGGSLRLSCAASGSTFEYNDMGWYRQAPGKERELVAAISSGGDTNYADSVKGRFTISRDNAKITVYLQMNSLKPEDTAVYYCAADDWAPYRWYYGYAGYYYWGQGTLVTVSS”, the “polyreactivity (PSR sort gate)” value is on record as “low polyreactivity”.

Consider “QVQLVESGGGLVQAGGSLRLSCAASGSTFEYYAMGWYRQAPGKERELVAAISRTGGRTYYADSVKGRFTISRDNAKNTVYLQMNSLKPEDTAVYYCNAVTRIGGGDYDDWGQGTQVTVSS”, for which the “polyreactivity (PSR sort gate)” value was “low polyreactivity”.

On to “QVQLVESGGGLVQAGGSLRLSCAASGSTFEYYVMGWYRQAPGKERELVAAISGSGGGTYYADSVKGRFTISRDNAKNTVYLQMNSLKPEDTAVYYCAAVATQEKYDYWGQGTQVTVSS”, for which the “polyreactivity (PSR sort gate)” value was “low polyreactivity”.

Take “QVQLVESGGGLVQAGGSLRLSCAASGSTFFANAMGWYRQAPGKERELVAAITSGGSTYYADSVKVRFTISRDNAKNTVYLQMNSLKPEDTAVYYCAAPLCGGARWGRWWLYDSWGQGTQVNVSS”: the “polyreactivity (PSR sort gate)” value is on record as “low polyreactivity”.

Take “QVQLVESGGGLVQAGGSLRLSCAASGSTFFAYAMGWYRQAPGKERELVAAITGRGSTYYADSVKGRFTISRDNAKNTVYLQMNSLKPEDTAVYYCAAQRSRRYYRLDYWGQGTQVTVSS”: the “polyreactivity (PSR sort gate)” value was “high polyreactivity”.

For “QVQLVESGGGLVQAGGSLRLSCAASGSTFFGNAMGWYRQAPGTERELVAAIRFSGVGTYYADSVKGRFTISLDNAKNTVYLQMNSLKPEDTAVYYSAAESYYKYYWGQGTQVTVSS”, the “polyreactivity (PSR sort gate)” value is “low polyreactivity”.

As for “QVQLVESGGGLVQAGGSLRLSCAASGSTFFHYAMGWYRQAPGKERELVAAISGSGGSTYYADSVKGRFTISRDNAKNTVYLQMNSLKPEDTAVYYCNARVWHYTSRTTFDYWGQGTQVTVSS”, the “polyreactivity (PSR sort gate)” value was “low polyreactivity”.

Regarding “QVQLVESGGGLVQAGGSLRLSCAASGSTFFIYAMGWYRQAPGKERELVAAITSGGTYADSVKGRFTISRDNAKNTVYLQMNSLKPEDTAVYYCNAGNNVVVDYDYWGQGTQVTVSS”, the “polyreactivity (PSR sort gate)” value is listed as “low polyreactivity”.

As to “QVQLVESGGGLVQAGGSLRLSCAASGSTFFIYAMGWYRQAPGKERELVAAITWRGGTTYYADSVKGRFTISRDNAKNTVYLQMNSLKPEDTAVYYCNADPVDYANIVYYYDYNYWGQGTQVTVSS”, the “polyreactivity (PSR sort gate)” value is reported as “low polyreactivity”.

In the case of “QVQLVESGGGLVQAGGSLRLSCAASGSTFFIYTMGWYRQAPGKEREFVAAISWTGGRTYYADSVKGRFTISRDNAKYTVYLQMNSLIPEDTPVYYCAALYKYSSYDYWGQGTQVTVSS”, the “polyreactivity (PSR sort gate)” value was “high polyreactivity”.

As for “QVQLVESGGGLVQAGGSLRLSCAASGSTFFKYAMGWYRQAPGKERELVAAISYSGGSTYYADSVKGRFTISRDNAKNTVYLQMNSLKPVDTAVYYCAARVQNRYRPYYYWGQGTQVTVSS”, the “polyreactivity (PSR sort gate)” value is recorded as “high polyreactivity”.

“QVQLVESGGGLVQAGGSLRLSCAASGSTFFLYAMGWYRQAPGKERELVAAISTTGGSTNYADSVKGRFTISRDNAKNTVYLQMNSLKPEDTAVYYCAAGPSAQSIYDHWGQGTQVTVSS”: the “polyreactivity (PSR sort gate)” value is “low polyreactivity”.

With “QVQLVESGGGLVQAGGSLRLSCAASGSTFFLYAMGWYRQAPGKERELVASITDGGSTNYADSVKGRFTISRDNAKNTVYLQMNSLKPEDTAVYYCAKDYIHFSHKYDYWGQGTQVTVSS”, the “polyreactivity (PSR sort gate)” value is “low polyreactivity”.

Consider “QVQLVESGGGLVQAGGSLRLSCAASGSTFFLYVRGWYRQAPGKERELVAAITSGGRTYYADSVKGRFTISRDNAKNTVYLQMNSLKPEDTAVYNCAADVRRVRVGKYDYWGQGTQVTVSS”, for which the “polyreactivity (PSR sort gate)” value is recorded as “high polyreactivity”.

With “QVQLVESGGGLVQAGGSLRLSCAASGSTFFNNAMGWYRQAPGKERELVAAITGGGGRTYYADSVKGRFTISRDNAKNTVYLQMNSLKPEDTAVYYCAAVPRRSYGGYPYYYWGQGTQVTVSS”, the “polyreactivity (PSR sort gate)” value is recorded as “low polyreactivity”.

For the sequence “QVQLVESGGGLVQAGGSLRLSCAASGSTFFPNAMGWDRQAPGKERELVAAITRSDDDTYYADSVKGRFTISRVHAKNTVYLQMNCLKPEDTAVYYCAADGTSTDSPSWPGYEYWGQGTQVTVSS”, the “polyreactivity (PSR sort gate)” value is “low polyreactivity”.

For “QVQLVESGGGLVQAGGSLRLSCAASGSTFFPNGMGWYRQAPGKERELVAAITQDGGSTYYADSVKGRFTISRDNAKNTVYLQMNSLKPEDTAVYYCNADYFVWYIGRVFSRYGYWGQGTQVTVSS”, the “polyreactivity (PSR sort gate)” value is “low polyreactivity”.

“QVQLVESGGGLVQAGGSLRLSCAASGSTFFPYAMGWYRQAPGKERELVAAIRWSGGRTYYADSVKGRFTISRDNAKNTVYLQMNRLKPEDTAVYYCNAGRYKYTDDYWGQGTQVTVSS”: the “polyreactivity (PSR sort gate)” value is reported as “high polyreactivity”.

Consider “QVQLVESGGGLVQAGGSLRLSCAASGSTFFPYAMGWYRQAPGKERELVAAIRWSGGRTYYADSVKGRFTISRDNAKNTVYLQMNSLNPEDTAVYYCAAAKYLDYDYWGQGTQVTVSS”, for which the “polyreactivity (PSR sort gate)” value is “high polyreactivity”.

Consider “QVQLVESGGGLVQAGGSLRLSCAASGSTFFPYAMGWYRQAPGKERELVAGISSDGGTYYADSVKGRFTISRDNAKNTVYLQMNSLKPEDTAVYYCAALQADRDRYPEFDLMDYWGQGTQVTVSS”, for which the “polyreactivity (PSR sort gate)” value is given as “low polyreactivity”.

With “QVQLVESGGGLVQAGGSLRLSCAASGSTFFRNAMGWYRQAPGKERELVAGITSGVTTYYADSVKGRFTISRDNAKNTVYLQMNSLKPEDTAVYYCAARRTGYRLRKSDYWGQGTQVTVSS”, the “polyreactivity (PSR sort gate)” value is reported as “high polyreactivity”.

For “QVQLVESGGGLVQAGGSLRLSCAASGSTFFRYTMGWYRQAPGKERELVAAISWSGGSTYYADSVKGRFTISRDNAKNTVYLQMNSLKPEDTAVYYCAAVYEWDAVKWVDVDMDYWGQGTQVTVSS”, the “polyreactivity (PSR sort gate)” value was “low polyreactivity”.

For “QVQLVESGGGLVQAGGSLRLSCAASGSTFFRYTMGWYRQAPGKERELVAAITSGGGTDYADSVKGRFTISRDNGKNTVYLQMNSLKPDDTAVYYCAVILSWRDYYLYWRGSWRDDYWGQGTQVSVSS”, the “polyreactivity (PSR sort gate)” value is “low polyreactivity”.

“QVQLVESGGGLVQAGGSLRLSCAASGSTFFTNAMGWYRQAPGKERELVATITWSGGSTYADSVKGRFTISRDNAKNTVYLQMNSLKPEDTAVFYCAAESSSYWGDQGGALWLYDYWGQGTQVTVSS”: the “polyreactivity (PSR sort gate)” value was “low polyreactivity”.

Consider “QVQLVESGGGLVQAGGSLRLSCAASGSTFFTNVMGWYRQAPGKERELVADISSGGDTNYADSVKGRFTISRDNAKNTVYLQMNSLKPEDTAVYYCAVDPNVDYELHGFFFSFDYWGQGTQVTVSS”, for which the “polyreactivity (PSR sort gate)” value is reported as “low polyreactivity”.
